Reference: PMC3788760

How the values were obtained:
[1] = target: full-length human protein disulfide isomerase (PDI) (human) (UniProt P07237)
[2] = target: a-domain of human PDI (human)
[3] = target: human PDI fragment abb’xa’ (human)
[4] = target: full-length human protein disulfide isomerase (PDI) (human) (UniProt P07237); test: ITC; 37.0°C; VP-ITC; 200 µM Tau244–372 in the syringe injected into 8.1 µM full-length PDI or domain a in the cell; 10 mM HEPES pH 7.4, 100 mM NaCl, no DTT; single set of identical sites model
[5] = target: a-domain of human PDI (human); test: as above
[6] = target: full-length human protein disulfide isomerase (PDI) (human) (UniProt P07237); test: ITC; 25.0°C; VP-ITC; 200 µM Tau244–372 (or 40 µM full-length Tau) in the syringe injected into 8.1 µM PDI or fragment (or 3.24 µM PDI) in the cell; 10 mM HEPES pH 7.4, 100 mM NaCl, no DTT; single set of identical sites model
[7] = target: a-domain of human PDI (human); test: as above
[8] = target: human PDI fragment abb’xa’ (human); test: as above

human Tau fragment Tau244–372, sequence (P10636 561-689): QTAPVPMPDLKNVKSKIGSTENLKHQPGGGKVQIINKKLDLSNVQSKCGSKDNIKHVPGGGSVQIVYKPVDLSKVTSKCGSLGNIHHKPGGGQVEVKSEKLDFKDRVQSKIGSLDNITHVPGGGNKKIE

human Tau fragment Tau244–372 (from UniProt P10636-8 244-372) (domain or fragment)
lag time of Tau244–372 fibrillization (ThT) with 100 g/l Ficoll 70, 20 µM full-length PDI (∼0 without PDI) [1]: 44.8 min
lag time of Tau244–372 fibrillization (ThT, 37°C, 10 µM Tau244–372, heparin, 1 mM DTT), 0–20 µM full-length PDI (184 min without PDI); value at 20 µM [1]: 242 min
rate constant k for the growth of Tau244–372 fibrils (ThT) with 100 g/l Ficoll 70, 20 µM full-length PDI (54.9 without PDI) [1]: 0.0314 min⁻¹
rate constant k for the growth of Tau244–372 fibrils (ThT), 0–20 µM full-length PDI (falls from 36.7 without PDI); value at 20 µM [1]: 0.0224 min⁻¹
t m (time to 50% of maximal ThT fluorescence) of Tau244–372 fibrillization, 0–20 µM full-length PDI (238.3 min without PDI); value at 20 µM [1]: 331 min
t m of Tau244–372 fibrillization (ThT) with 100 g/l Ficoll 70, 20 µM full-length PDI (11.6 min without PDI) [1]: 108 min
lag time of Tau244–372 fibrillization (ThT, 37°C), 0–20 µM domain a (184 min without PDI); value at 20 µM [2]: 253 min
rate constant k for the growth of Tau244–372 fibrils (ThT), 0–20 µM domain a (falls from 36.7 without PDI); value at 20 µM [2]: 0.0176 min⁻¹
t m of Tau244–372 fibrillization (ThT), 0–20 µM domain a (238.3 min without PDI); value at 20 µM [2]: 366 min
lag time of Tau244–372 fibrillization (ThT, 37°C), 0–20 µM abb’xa’ (184 min without PDI); value at 20 µM [3]: 247 min
rate constant k for the growth of Tau244–372 fibrils (ThT), 0–20 µM abb’xa’ (falls from 36.7 without PDI); value at 20 µM [3]: 0.0233 min⁻¹
t m of Tau244–372 fibrillization (ThT), 0–20 µM abb’xa’ (238.3 min without PDI); value at 20 µM [3]: 333 min
Kd [4]: 4.83 µM
dH [4]: -9.27 kcal/mol
stoichiometry N [4]: 1.02
Kd [5]: 1.34 µM
dH [5]: -4.34 kcal/mol
stoichiometry N [5]: 0.56
Kd [6]: 3.46 µM
dH [6]: -8.6 kcal/mol
stoichiometry N [6]: 0.8
Kd [7]: 0.48 µM
dH [7]: -4 kcal/mol
stoichiometry N [7]: 0.489
Kd [8]: 7.35 µM
dH [8]: -5.9 kcal/mol
stoichiometry N [8]: 0.97
